Here are results for one substance from PMC2374443.

The target of this test is integrin-associated protein (CD47/IAP) (human (endogenous in primary articular chondrocytes)).
Chain of integrin-associated protein (CD47/IAP) (human (endogenous in primary articular chondrocytes)) (Q08722 19-323): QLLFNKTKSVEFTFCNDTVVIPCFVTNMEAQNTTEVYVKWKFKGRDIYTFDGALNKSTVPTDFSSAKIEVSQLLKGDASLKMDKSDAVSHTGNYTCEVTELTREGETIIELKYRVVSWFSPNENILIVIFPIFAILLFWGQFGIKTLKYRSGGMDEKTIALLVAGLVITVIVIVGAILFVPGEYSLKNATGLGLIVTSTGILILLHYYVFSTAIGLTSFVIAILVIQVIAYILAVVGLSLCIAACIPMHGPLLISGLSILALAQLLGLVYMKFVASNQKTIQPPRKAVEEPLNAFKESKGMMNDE

Consider “thrombospondin-1 (TSP-1) (from UniProt P07996 19-1170) (natural protein)”, for which the percentage change of membrane potential of normal chondrocytes after 20 min of 0.33 Hz mechanical stimulation in the presence of anti-CD47/IAP antibody Bric 126 (without antibody +21) amounted to 2%, the percentage change of membrane potential of osteoarthritic chondrocytes after 20 min of 0.33 Hz mechanical stimulation in the presence of anti-CD47/IAP antibody Bric 126 (without antibody -42) was -2% and the percentage change of membrane potential of osteoarthritic chondrocytes after 20 min of 0.33 Hz mechanical stimulation in the presence of anti-TSP-1 antibody (without antibody -42) turned out to be 3%.
